Reference: patent publication US20110014213A1 (JURIDICAL FDN THE CHEMO SERO THERAP RES INS, published 2011)

How the values were obtained:
mouse α4 integrin = biological target: T1, mouse α4 integrin (mouse, UniProt Q00651 41-1039); assay: flow cytometry on CHO/mα4
T1 construct: whole, on cells; Control antigen; also called CHO/mα4
T1 sequence (looked up): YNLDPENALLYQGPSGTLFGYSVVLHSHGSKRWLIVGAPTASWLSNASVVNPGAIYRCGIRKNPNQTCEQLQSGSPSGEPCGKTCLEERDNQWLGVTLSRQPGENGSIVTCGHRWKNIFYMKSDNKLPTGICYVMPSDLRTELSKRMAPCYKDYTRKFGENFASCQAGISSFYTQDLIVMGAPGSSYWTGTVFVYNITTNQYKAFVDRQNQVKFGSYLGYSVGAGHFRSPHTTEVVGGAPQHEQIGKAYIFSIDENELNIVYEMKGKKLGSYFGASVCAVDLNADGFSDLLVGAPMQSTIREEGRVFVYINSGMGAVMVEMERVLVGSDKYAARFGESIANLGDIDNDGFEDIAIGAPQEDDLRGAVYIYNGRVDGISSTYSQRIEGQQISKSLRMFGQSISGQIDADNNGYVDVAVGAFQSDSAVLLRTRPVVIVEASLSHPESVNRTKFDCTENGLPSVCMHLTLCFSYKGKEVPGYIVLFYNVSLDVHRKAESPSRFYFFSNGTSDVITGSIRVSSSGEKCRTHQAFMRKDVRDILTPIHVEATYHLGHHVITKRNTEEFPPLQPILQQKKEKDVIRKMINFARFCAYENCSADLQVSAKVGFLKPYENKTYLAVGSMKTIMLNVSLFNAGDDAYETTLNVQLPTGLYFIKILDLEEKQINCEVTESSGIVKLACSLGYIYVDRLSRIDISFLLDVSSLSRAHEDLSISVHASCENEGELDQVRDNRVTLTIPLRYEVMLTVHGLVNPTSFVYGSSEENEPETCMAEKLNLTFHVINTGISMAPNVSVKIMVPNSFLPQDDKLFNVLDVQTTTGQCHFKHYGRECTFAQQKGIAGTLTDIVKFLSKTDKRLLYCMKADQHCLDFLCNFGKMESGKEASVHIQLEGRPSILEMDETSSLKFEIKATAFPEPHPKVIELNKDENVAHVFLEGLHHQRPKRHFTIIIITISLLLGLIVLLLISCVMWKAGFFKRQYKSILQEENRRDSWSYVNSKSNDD
Method: As a result, the reactivity with mouse α9 and human α9 was confirmed. Although the reactivity with each of CHO and CHO/mα4 was also assessed in the same manner, the reactivity with mouse α4 was not observed (FIG. 6).

hα9/mL1-EGFP = biological target: T2, hα9/mL1-EGFP (human, UniProt Q13797 30-1035); assay: Cell ELISA on transiently expressing CHO cells
T2 construct: an offset must be applied; also called L1 loop region variant of human α9-EGFP; not shown: EGFP from pEGFP-N1 vector (Clontech) fused to the C-terminal (cytoplasmic region)
T2 chain: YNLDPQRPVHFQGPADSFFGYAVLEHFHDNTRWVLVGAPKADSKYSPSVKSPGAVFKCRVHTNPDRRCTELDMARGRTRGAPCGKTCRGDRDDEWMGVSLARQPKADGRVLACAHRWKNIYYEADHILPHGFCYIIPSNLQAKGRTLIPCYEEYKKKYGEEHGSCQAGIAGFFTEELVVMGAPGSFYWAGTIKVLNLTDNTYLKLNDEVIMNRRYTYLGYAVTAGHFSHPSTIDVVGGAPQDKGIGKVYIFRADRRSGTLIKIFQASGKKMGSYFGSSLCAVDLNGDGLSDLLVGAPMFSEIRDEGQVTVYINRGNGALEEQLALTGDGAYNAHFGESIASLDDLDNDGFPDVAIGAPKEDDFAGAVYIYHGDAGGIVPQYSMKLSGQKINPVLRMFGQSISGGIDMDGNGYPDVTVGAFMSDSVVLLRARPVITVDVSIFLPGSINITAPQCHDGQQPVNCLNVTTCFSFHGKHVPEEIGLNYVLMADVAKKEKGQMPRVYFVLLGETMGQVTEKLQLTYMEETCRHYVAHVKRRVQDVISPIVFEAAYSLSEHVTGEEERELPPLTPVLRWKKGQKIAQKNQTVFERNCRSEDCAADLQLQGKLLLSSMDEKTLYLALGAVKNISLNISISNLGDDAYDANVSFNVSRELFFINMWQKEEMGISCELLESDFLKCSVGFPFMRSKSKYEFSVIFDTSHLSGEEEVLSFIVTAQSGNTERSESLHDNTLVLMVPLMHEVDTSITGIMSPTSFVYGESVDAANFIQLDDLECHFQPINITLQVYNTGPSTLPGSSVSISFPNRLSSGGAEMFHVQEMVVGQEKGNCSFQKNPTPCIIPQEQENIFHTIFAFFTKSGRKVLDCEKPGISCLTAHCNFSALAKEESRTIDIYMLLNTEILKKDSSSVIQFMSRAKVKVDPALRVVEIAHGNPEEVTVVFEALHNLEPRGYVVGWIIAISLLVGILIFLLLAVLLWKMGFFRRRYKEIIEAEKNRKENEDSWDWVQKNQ
Method: CHO/mα9 and CHO were seeded on a 96 well plate (costar) at 2×10⁴ cells/100 μL/well, and incubated overnight at 37° C., 5% CO₂. The medium was suctioned, and the cells were washed with PBS, and reacted with phage antibody diluted with 1% BSA/PBS. The detection was performed by using horse-radish peroxidase (HRP)-labeled anti-M13 antibody (Amersham) and TMB (SIGMA) in combination. The absorbance at wavelengths 450 nm and 650 nm was measured by a microplate reader (Molecular Devices).
SW480/mα9, SW480/hα9 and SW480 were used as antigens, 1% BSA/PBS containing 5% FBS was used as a dilution solution, an HRP-labeled anti-mouse IgG antibody (ZYMED) was used for detection, and the rest was performed under the same conditions as in Example 4.
Next, analysis by Cell ELISA was performed. Various cells after about 24 hr from gene transfection were collected, and seeded on a 96 well plate at 2×10⁴ cells/100 μL/well. The rest was performed under the same conditions as in Example 11.

B1: MA9-413 scFv-Fc (Fc fusion)
scFv: EVQLVESGGGVVRPGGSLRLSCAASGFAFGDYGMSWVRQAPGKGLEWVSGINWNGGSTGYADSVKGRFTTSRDNAKNSLYLQMNSLRAEDTALYYCARDENYDILTGYYYYGMDVWGQGTTVTVSSGGGGSGGGGSGGGGSQSVVTQPPSVSAAPGQKVTISCSGSSSNIGNNYVSWYQQLPGTAPKLLIYDNNKRPSGIPDRFSASKSGTSATLGITGLQTGDEADYYCGTWDSSLTVWAFGGGTKLTVLG
notes: Divalent scFv-Fc with mouse IgG1 Fc, expressed in CHO-DG44; also called ANM-2; not shown: Fc region of mouse IgG1 and its junction to the scFv
Question: Does B1 bind (mouse α4 integrin)?
Answer: Result: no binding

Question: Does B1 bind (hα9/mL1-EGFP)?
Answer: Result: binds
